Experimental findings from PMC11214633 are described below.

A word on the stoichiometry N: it is a count of units in the complex or per binding partner.

In experiment [1] the target is prefusion-stabilized PRD-0038 S2 subunit trimer (PRD-0038 sarbecovirus). Put plainly: negative-stain EM.
Experiment [2] addresses prefusion-stabilized SARS-CoV-1 S2 subunit trimer (SARS-CoV-1). The experiment is described as follows: negative-stain EM.

In turn, “prefusion-stabilized PRD-0038 S2 subunit trimer (domain or fragment)” yielded a stoichiometry N in experiment [1] of 3.
“prefusion-stabilized SARS-CoV-1 S2 subunit trimer (domain or fragment)” gave a stoichiometry N in experiment [2] of 3.
